# The supplement of paper PMC10567573
# B1: FAM98B (parent)
# chain: QLDKNSEVYQEVQAMFDTLGIPKS
# Variants of: B1
# Assay: protein stability index of a GFP-peptide fusion (GPS, HEK-293T) (PSI 1-6); higher = more stable
# Conditions: c terminus: a fixed tail appended
# 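Also: lentivirally expressed fusions sorted by FACS into six bins by GFP to DsRed ratio, PSI derived from sequencing read proportions per bin multiplied by bin number.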
row,Variant,protein stability index
1,QLDKNSEVYQEVHAMFDTLGIPKS [Q13H],3.03
2,QLDKNSEVYQEVYAMFDTLGIPKS [Q13Y],2.36
3,QLDKNSEVYQEVEAMFDTLGIPKS [Q13E],3.34
4,QLDKNSEVYQEVDAMFDTLGIPKS [Q13D],3.82
5,QLDKNSEVYQEVFAMFDTLGIPKS [Q13F],2.53
6,QLDKNSEVYQEVGAMFDTLGIPKS [Q13G],3.09
7,QLDKNSEVYQEVVAMFDTLGIPKS [Q13V],3.15
8,QLDKNSEVYQEVCAMFDTLGIPKS [Q13C],2.88
9,QLDKNSEVYQEVWAMFDTLGIPKS [Q13W],2.24
10,QLDKNSEVYQEVSAMFDTLGIPKS [Q13S],3.24
11,QLDKNSEVYQEVKAMFDTLGIPKS [Q13K],2.55
12,QLDKNSEVYQEVIAMFDTLGIPKS [Q13I],3.19
13,QLDKNSEVYQEVPAMFDTLGIPKS [Q13P],3.27
14,QLDKNSEVYQEVNAMFDTLGIPKS [Q13N],2.56
15,QLDKNSEVYQEVMAMFDTLGIPKS [Q13M],2.73
16,QLDKNSEVYQEVTAMFDTLGIPKS [Q13T],3.86
17,QLDKNSEVYQEVRAMFDTLGIPKS [Q13R],2.59
18,QLDKNSEVYQEVAAMFDTLGIPKS [Q13A],3.58
19,QLDKNSEVYQEVLAMFDTLGIPKS [Q13L],3.29
20,QLDKNSEVYQEVQDMFDTLGIPKS [A14D],3.82
21,QLDKNSEVYQEVQGMFDTLGIPKS [A14G],2.58
22,QLDKNSEVYQEVQNMFDTLGIPKS [A14N],4.67
23,QLDKNSEVYQEVQVMFDTLGIPKS [A14V],2.77
24,QLDKNSEVYQEVQYMFDTLGIPKS [A14Y],3.22

row,Variant,protein stability index
1,QLDKNSEVYQEVQTMFDTLGIPKS [A14T],3.34
2,QLDKNSEVYQEVQSMFDTLGIPKS [A14S],3.37
3,QLDKNSEVYQEVQFMFDTLGIPKS [A14F],2.64
4,QLDKNSEVYQEVQIMFDTLGIPKS [A14I],3.22
5,QLDKNSEVYQEVQKMFDTLGIPKS [A14K],3.03
6,QLDKNSEVYQEVQQMFDTLGIPKS [A14Q],3.61
7,QLDKNSEVYQEVQEMFDTLGIPKS [A14E],3.79
8,QLDKNSEVYQEVQLMFDTLGIPKS [A14L],2.83
9,QLDKNSEVYQEVQHMFDTLGIPKS [A14H],3.14
10,QLDKNSEVYQEVQWMFDTLGIPKS [A14W],2.63
11,QLDKNSEVYQEVQMMFDTLGIPKS [A14M],2.89
12,QLDKNSEVYQEVQRMFDTLGIPKS [A14R],2.55
13,QLDKNSEVYQEVQCMFDTLGIPKS [A14C],3.04
14,QLDKNSEVYQEVQPMFDTLGIPKS [A14P],3.81
15,QLDKNSEGYQEVQAMFDTLGIPKS [V8G],3.12
16,QLDKNSEWYQEVQAMFDTLGIPKS [V8W],2.88
17,QLDKNSEYYQEVQAMFDTLGIPKS [V8Y],2.96
18,QLDKNSEPYQEVQAMFDTLGIPKS [V8P],3.32
19,QLDKNSELYQEVQAMFDTLGIPKS [V8L],3.47
20,QLDKNSETYQEVQAMFDTLGIPKS [V8T],3.81
21,QLDKNSERYQEVQAMFDTLGIPKS [V8R],3.36
22,QLDKNSEIYQEVQAMFDTLGIPKS [V8I],2.73
23,QLDKNSEQYQEVQAMFDTLGIPKS [V8Q],3.31
24,QLDKNSEHYQEVQAMFDTLGIPKS [V8H],3.12

row,Variant,protein stability index
1,QLDKNSESYQEVQAMFDTLGIPKS [V8S],3.35
2,QLDKNSEMYQEVQAMFDTLGIPKS [V8M],3.2
3,QLDKNSEKYQEVQAMFDTLGIPKS [V8K],3.07
4,QLDKNSENYQEVQAMFDTLGIPKS [V8N],3.94
5,QLDKNSEVYQEVQAMFDALGIPKS [T18A],3.34
6,QLDKNSEVYQEVQAMFDCLGIPKS [T18C],2.59
7,QLDKNSEVYQEVQAMFDDLGIPKS [T18D],3.87
8,QLDKNSEVYQEVQAMFDELGIPKS [T18E],3.57
9,QLDKNSEVYQETQAMFDTLGIPKS [V12T],3.52
10,QLDKNSEVYQEYQAMFDTLGIPKS [V12Y],2.56
11,QLDKNSEVYQEEQAMFDTLGIPKS [V12E],3.5
12,QLDKNSEVYQEDQAMFDTLGIPKS [V12D],4.19
13,QLDKNSEVYQEMQAMFDTLGIPKS [V12M],3.29
14,QLDKNSEVYQEHQAMFDTLGIPKS [V12H],3.42
15,QLDKNSEVYQEGQAMFDTLGIPKS [V12G],4
16,QLDKNSEVYQECQAMFDTLGIPKS [V12C],3.36
17,QLDKNSEVYQERQAMFDTLGIPKS [V12R],2.8
18,QLDKNSEVYQENQAMFDTLGIPKS [V12N],3.53
19,QLDKNSEVYQEKQAMFDTLGIPKS [V12K],3.22
20,QLDKNSEVYQEPQAMFDTLGIPKS [V12P],3.34
21,QLDKNSEVYQEAQAMFDTLGIPKS [V12A],3
22,QLDKNSEVYQEFQAMFDTLGIPKS [V12F],3.48
23,QLDKNSEVYQESQAMFDTLGIPKS [V12S],2.77
24,QLDKNSEVYQEWQAMFDTLGIPKS [V12W],3.85

row,Variant,protein stability index
1,QLDKNSEVYQEIQAMFDTLGIPKS [V12I],3.04
2,QLDKNSEVYQELQAMFDTLGIPKS [V12L],3.1
3,QLDKNSEVYQEQQAMFDTLGIPKS [V12Q],3.56
4,QLDKNSEVYQEVQAMFFTLGIPKS [D17F],3.27
5,QLDKNSEVYQEVQAMFPTLGIPKS [D17P],3.49
6,QLDKNSEVYQEVQAMFHTLGIPKS [D17H],2.43
7,QLDKNSEVYQEVQAMFRTLGIPKS [D17R],2.71
8,QLDKNSEVYQEVQAMFYTLGIPKS [D17Y],2.02
9,QLDKNSEVYQEVQAMFITLGIPKS [D17I],1.83
10,QLDKNSEVYQEVQAMFKTLGIPKS [D17K],2.77
11,QLDKNSEVYQEVQAMFETLGIPKS [D17E],3.42
12,QLDKNSEVYQEVQAMFCTLGIPKS [D17C],2.64
13,QLDKNSEVYQEVQAMFQTLGIPKS [D17Q],2.86
14,QLDKNSEVYQEVQAMFTTLGIPKS [D17T],3.12
15,QLDKNSEVYQEVQAMFNTLGIPKS [D17N],3.73
16,QLDKNSEVYQEVQAMFATLGIPKS [D17A],2.92
17,QLDKNSEVYQEVQAMFLTLGIPKS [D17L],2.23
18,QLDKNSEVYQEVQAMFGTLGIPKS [D17G],3.08
19,QLDKNSEVYQEVQAMFSTLGIPKS [D17S],3.14
20,QLDKNSEVYQEVQAMFMTLGIPKS [D17M],2.5
21,QLDKNSEVYQEVQAMFVTLGIPKS [D17V],2.38
22,QLDKNSEVYQEVQAMFWTLGIPKS [D17W],1.57
